This is an account of results in patent publication US20230075095A1 (University of Washington, published 2023).

The data set concerns the molecule itself. Description: negative-stain TEM, homomeric self-assembly. The method, then: FIG. 2(a-b). Transmission electron micrographs of degreased I3-01 constructs. […] Images taken at 22,000× magnification.
Samples were prepared for negative stain EM by diluting to 0.05-0.075 mg/mL using a Tris-based buffer, and 6.0 μL was incubated on a glow-discharged, copper, carbon-coated grid for 1 min before quickly immersing the grid in a 60 μL drop of water. The water was blotted off within seconds by Whatman™ No. 1 filter paper, and the grid was immediately dipped into a 6.0 μL drop of stain (2% w/v uranyl formate). The stain was immediately blotted away and within seconds the grid was dipped into another 6.0 μL drop of stain, which was left on the grid for 30 seconds. At the end of this time, the stain was blotted dry and allowed to air dry for 5 minutes prior to imaging. Images were recorded on a FEI Morgagni 268 transmission electron microscope equipped with a Gatan US4000 CCD camera, using Leginon™ software for data collection at a nominal magnification of 22,000× at a defocus range comprised between −1 um and −4 um.

B1: I3-01 H35D (designed binder)
chain: YKDEKMEELFKKHKIVAVLRANSVEEAKKKALAVFLGGVDLIEITFTVPDADTVIKELSFLKEMGAIIGAGTVTSVEQCRKAVESGAEFIVSPHLDEEISQFCKEKGVFYMPGVMTPTELVKAMKLGHTILKLFPGEVVGPQFVKAMKGPFPNVKFVPTGGVNLDNVCEWFKAGVLAVGVGSALVKGTPVEVAEKAKAFVEKIRGCTEQKLISEEDLHHHHHH
notes: One-component (homomeric) icosahedral nanoparticle secreted from HEK293F cells; also called H35D variant; degreased I3-01 construct
In the case of B1, the binding result was “binds”.

B2: I3-01 'secretion mutations' (H35D/L171Q/S177E/V180N) (designed binder)
chain: YKDEKMEELFKKHKIVAVLRANSVEEAKKKALAVFLGGVDLIEITFTVPDADTVIKELSFLKEMGAIIGAGTVTSVEQCRKAVESGAEFIVSPHLDEEISQFCKEKGVFYMPGVMTPTELVKAMKLGHTILKLFPGEVVGPQFVKAMKGPFPNVKFVPTGGVNLDNVCEWFKAGVQAVGVGEALNKGTPVEVAEKAKAFVEKIRGCTEQKLISEEDLHHHHHH
notes: One-component (homomeric) icosahedral nanoparticle secreted from HEK293F cells; also called H35D/L171Q/S177E/V180N quadruple mutant
As to B2, the binding result is reported as “binds”.
